Measurements: the domain aggregation screens of Martell et al. (2025)

Assay: soluble fraction after stress (log2 fold change); higher = more stays soluble; pooled small domains, quantitative proteomics
Conditions: stress: pH 4
In short: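 Small protein domains from pooled custom libraries were exposed to pH 4, then quantified with high-throughput quantitative proteomics. The fold change in how much of each domain remains soluble is read as aggregation propensity. It is given as log2, with higher values meaning more stayed soluble.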

Sequence	soluble fraction (log2)
HMEGNWGLWAKVPNRFAALTTDKDSALRRFKSKEDGEAWMASHGLKPERFDVLEIPADYKPA	-0.0509
HMEGRHFRILYILLNNERVTAPELAEEFGVSVRTIYRDIDTMSAAGIPIYMQGGRKGGIYLLEGY	-1.61
HMEGSRASMDGQVPGKTSYLEWLARQPAQRQDQVLGAERGRLFRAGEIDLADMFTDKGEWISLERLKQLS	-0.284
HMEGVSNLIVSVTRVKVTVDLSQAKVYLSIFPSEQAAFYLNALQQNRFQLKHDLSQLLKNQLRRIPTLQF	-0.0019
HMEHDYGLSGREREVLELMVQGLVKKEIADRLALSYHTVDNHLRSIYAKLQVHTRGGAVAKALSEHLVPP	-0.483
HMEHGQWLSEAQGASLAADWLARRRGVLPLNARRHLSGLSDQIARQIEGGLSREAGLYTAHEMMESLDP	-0.217
HMEHNDPEVERTMFQGLEALKLQLFEKAFGHFSLLIKLAPDYAEAWNKRATVLYLMGRFKESESDVMRTLE	-0.0178
HMEHQLLHMEKTIFEEIADDYPQLNHTKIRNVLAAFLFTNDDVFKRIADLSGGERGRVSLAKLMLSDA	-0.816
HMEHTPYLTEREADVVRLLVSGLDTAQIAQRLGIKTATVTAHKKHIFLKIGVRNTTQLVAWALIR	-0.557
HMEIELHNLALNIKEFRKKNKLSQAELAEKLGVARTTIGYYERAEVEPNIYTLVQLSKLMNRSIDSLLGL	-0.0684
HMEIFYGDDRVYTVSLHGQNNFPFRKKTSDFDYGFEDGTGDEEYLRVLDVTLSRLENEQFDLLFFQAGV	-0.842
HMEIFYSARAWAKLNDLVATRTYLQHLGAIAGRIGRSEGLSPDRIPDGRDGAVNGWPLWVWDRAYAEVS	-0.245
HMEIGLIRVDSRLIHGQVITKWLNYSKANVIVVVDDELSKDSFMSEIYKASAPNGIIVEILSIDDFMKNT	-0.142
HMEIHIGSLIKEKMEERGLSVSDFAHALHYERTNIYKIFKRSSIDVDLLLRISEVLAYDFLREVYL	-1.9
HMEINKLIELIGGYKALSEVLNVSKSAISNYKKRGSLPSYAIPIIVKELKSKGISIDLSEFT	-0.0727
HMEISAIIGNNLQQLRKEQGLSLDQLALKTGVSKAVLSQLENGKANPTINTIWKIATALHVTYSALLEPP	-0.347
HMEISEILNPPLVTAMAERYPEVDVSYYRDKYILYYESREHKITDHRRNFEKWLLVESQKEEN	-1.66
HMEISTENESFSNGLLEHPHYTRPPVWEDLKIPAVLMSGHHGKVAEWRKQQSEALTQERRPDLWEAFG	-0.0776
HMEITSSNELKKMISNLINSENKNNPISDSNIVEKLKENDFLVARRTVAKYRKLLGIKNVNQRKE	0.25
HMEIYELTDQEQRVLEFIGEGMTNREIAKNMFLAEKTVKNYVSSLLRKLGLERRTQAAAMAVRLSV	-0.988
HMEKAYVWTDTRTFDVQNYIGKKKSEVKNDQYGFEFLGEGDYVIDQLPRVGEQIEEGQKVKIMLGNQQEI	0.117
HMEKDKGTILKEARIKKGLTQEQLANNINYTRQYISKWENNISLPKDIQTLKKISNLLSIPLKELLPEDYL	0.0442
HMEKEFLFNGGKVVMNYEADRIQIMHDTKPGQDVITLMKKNGFKWSPFNKAWQRQITANAIYTTKHLINQ	-0.6

Sequence	soluble fraction (log2)
HMEKGIVSNKTDKGYGFIRSSTGESIFVHINNVGKEAYEQLAKGSRVLFDYEVTDRGKRATKVMLEPSES	-0.401
HMEKGLQYRRTDRAIMNAFIKLVNQGSFEKLTVQEILDEALVSRNTFYAHYRDIYDLMDALSN	-1.37
HMEKIDEDIMDVLKKKAEVSGISLGVLKSIYEKAVKQYKLGHEIGQVKEQYAMQKVNTHLLENK	0.169
HMEKIDYLSIGHRLRAYRIASSLKAEDVAESLGISRAAVYRLEKGEIVKIETLDNLARLLNTSLSSLLG	-1.3
HMEKIKNLTVTEFNLIANKNPSGSYDRITREALLHIIHKLESSYEAHTDLERKLFYKFRKAKFNAL	-0.715
HMEKIYLISDAAKQVNVEAHVLRYWEEELDIPAKRNELGHRYYTQEDIETFRKVKELKAQGIQLKGIKNIL	-1.07
HMEKLLTTRQSQIFELAKRKGYWNIPREISITQLAQLTGSSKSTISVMLHAIESKIVDTFYDEI	-0.216
HMEKLNERLLYLRKNANLTQQQLADKLHISNKTISQWETGRTLPDIVMLVRLAEIYDMKLDELLNQ	0.074
HMEKMLENIDLKAAVEALPEREKKVILLRYYRGMTQDAAAKVMKVSQVQISRIEKRAIEILREKL	-0.226
HMEKNKERIAFLKKRLEMYYEAEEKILQGQSYTIGSRTLTRTSLANVQSKIKELESEISALETRGN	-0.653
HMEKRIIMLEELKKQVYEANMELPRRGLITYTWGNVSGIDRESGNFVIKPSGVDYDKLKPEDMVVMDL	0.0555
HMEKRRQEIVELVKRESEISFAELKQHFPEVSEVTLRKDLKYLDSTLQIIRIHGGAKSLPAAI	-0.582
HMEKTTTLFDETTNPGIIYIGKAMPTGSAISEAAAVWAIKTIDTTTDTEIKWADGVTTYTKVWNNRASYSY	-1.35
HMEKVDAISQSILDVLKKNNGYLAVTDKSDPDEIYGLFQISKKTFKKAIGSLYRDRLISIEEEGIRLR	-0.237
HMEKVTAPMPGVINSIVKNVGDTVKRGDVVLILEAMKMENEIVAPKEGKIASINVAKGASVNAGDVLFSI	0.197
HMEKVTPEMIAEYNALAKKYNSNPEVVFKKKEIQRLKYIYSLMSEKQKETAEVFPNIPPPPPT	-0.599
HMEKYNIIVDNEDNFRLDKIIALNMKDLSRTMIQEMINRGLVSVNGKITKASYKTKLNDQIEIMIED	-0.171
HMELAALKILNSPIGKIAIGTSENGLVKLDILTSGQTRAEFSDLPKAHKLALDAADQLAAYF	0.113
HMELADNFAKLILTARESKGWTQAQLGQRMAETINVIKSAESGKPPADSVIRKFEMILGIELM	-0.121
HMELDFLRLQIITGIHSGRLSNNEILMMYDTYSQKGGNSYVSRIVNDYVDENNIKEEGKRNARK	-0.636
HMELDREALSDGLRRLSQLLAEDDIESRTLFRELAPGLKEQLGDDAVEKLAGHISRYEFEQAGALLATSG	-0.61
HMELIELTVTEEFEMARLDQFLAGHLTQSRTYIQKLIKAGQITINGNLITRVKVPVHYGDFILINIPDPE	-1.6
HMELKFIGEAVNNPKRPLIAILGGAKVSDKIGVIENLLTKADKILIGGAMMFTFLKAEGKNIGTSLVED	-0.0167

Sequence	soluble fraction (log2)
HMELLEVSVIIREADSTGWSAARQGMEQAAADLGAELRFLTLSQSNSAEEQRSLLAREVEGGADAVVLV	≥ 0.43
HMELNEMEAWSLVSKALRNGTYGAVEEFSRLPPTVQEAVGNPDNLRNWATSDYKAIETVIQSNFIKTY	-0.429
HMELNILELKSKERKISLEDHLYIKSFNFDNETNEYFYRLAFNSSKDLKNFKATINNDKTISIINFEI	-2.14
HMELPVNSIRVPDVVGLSLREAMQAMTDAGVPWQSVQAKGVGFVSRQSPEAGTVTQLRRVRLELKLF	-0.00108
HMELSPVDLGERLKIARETANFTQDAAAKAVGIARTTLVSIEKGQRTARLDEIQALSRFYGVSANALLR	0.0374
HMELTDRQKQIIEIVKKQQPISGEKIASILGFARATLRPDFSLLTMSGILQAKPKVGYLINEE	0.158
HMELVEVGDLTGLTVEQAENVLKNSNISISIDKYDESDKYEKDQIISQNPQNKKVKKGTAIHVVLSNGP	-0.181
HMEMKMGHIISKLRYESGYSQVELAEKIGITKGAVGMYETDKRKPDYDTLIKLADLFNVSTDYLLS	-1.31
HMEMNDFETLRDMYLTGKIWNVGDIVEANGVRGKVIRKGTNYLSFVDEDNKVHKAWLYDIEE	-0.429
HMEMSLGEKLKQARLTKNFSQEYMAEVLQISQKTYSNFENNKTKPDFSQIEEISKVLETSILEFLT	-0.0931
HMEMTGAHLRKKIRAKGFTFQQIADAIGESKQNLSQILSTNNIKTGTLERIAAAMGESVSYF	0.167
HMENDYTQAQFVQDLDSGVVREVIIIPNREAPTGYARVVFGDVVRELYATDIREVEALAREHGYEPTVED	-0.499
HMENFDNIFDQRLMPSLFIIRNINQAIENNNNNKFLLNSTISMKDKHWIEIHPHHLKLIISGYQT	-0.54
HMENIEVDFGVGDTVSVIGGAWKDTVGVVQAMNPNKQSLTINVELFGRETPVEISFTDVQKM	-0.962
HMENINIRNMGIRAVEAAIISLSPDQRTFTWGATNKKLVTVPYEENPYSALAAFFKTDDGIEIYDAIEKRL	-0.881
HMENNNIAFSKFLEEVDSGRVVQVEIQGNNISGTLSDGSKFKTYSPNYPDLVSKLSEKNVSIIASPV	0.166
HMENPLVEVVVPVLNEERILKANIETLHHFLRTQPGFNFRITIADNGSTDKTQAIANDLTNSHAVIRV	-0.441
HMENPMIEQLKQFIEAQGLTQGQLAAKLGVSTATVNQYLQGKYKGDTAALDAKAAQLMARSREK	0.175
HMENRILIPTAENIGERLDRYISSELDAPRSQVQIWIDSGLVAVSGGLKPKNYRLREGDEIEVTIPDPV	-0.0637
HMENRLREVRDEIATRHGILPTVFINDRVLMNIHSKKPKDVSQLWQVDGISDEFIMKYGPEFIAEYKKKAK	-0.59
HMENRREYQKAIDYLSDQIRAGTLTVGSRLPTERAIAEALGISRNSTREALRTMENMGMIESKQGSGHYLT	-0.0814
HMENTELIELRKKRNLSQSQLAELLDLTRNQIANYESGRRIPDQETKQIIAGFFEMPAEEIFAG	-0.0656
HMENTFNENLRRIRKEKKITQEQLAEFVGVSPQAVSKWEMNSFPDASLLPKIAEKLEVSIDELFGLK	-0.225
